Article PMC11843584

Experiments:
[1] = biological target: Cleaved TEV-BID (p7 and tBID domains after TEV protease cleavage) (human) (UniProt P55957); experiment: thioflavin T fluorescence; 5 μM protein with 50 μM peptide, ThT emission spectra against protein alone, peptide alone and buffer
[2] = biological target: BID (BH3-interacting domain death agonist), N-terminal His6-tagged, wild type (human) (UniProt P55957); experiment: light-scattering titration; peptide titrated into 5 μM BID, scattered photons of a 280-nm beam; 20 mM sodium acetate pH 6.3; also at 10, 24 and 37 °C, with 0.25% or 1% OG, and in 20 mM potassium phosphate pH 5.5 to 8.0

UniProt P55957, sequence (P55957 whole entry, the tested form may be a part): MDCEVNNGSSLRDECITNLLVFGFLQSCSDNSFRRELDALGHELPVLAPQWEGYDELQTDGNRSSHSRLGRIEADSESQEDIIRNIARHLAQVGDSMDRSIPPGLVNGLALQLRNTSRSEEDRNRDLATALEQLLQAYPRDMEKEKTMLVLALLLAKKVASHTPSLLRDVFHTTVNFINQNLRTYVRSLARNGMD

Humanin (HN), wild-type peptide was tested, and the increase in ThT fluorescence against WT BID [1] was 15%, the fold increase in light scattering at pH 8.0 [2] was 8 fold and the fold increase in light scattering with 1% (w/v) OG against no detergent [2] was 5 fold. The fold increase in scattered photons at 37 °C against 24 °C [2] was 2.5 fold, the fold increase in scattered photons at neutral pH against pH 6.0 [2] was 4 fold and the protein-to-peptide ratio at the plateau of scattered photons (protein to peptide) [2] was 2.
